Laboratory results published in patent US5985836A, “Alpha-1 proteinase inhibitor binding peptides” (Bayer Corporation, priority 1998, dated 1999).
Ends that are not written are not given here.

Assays:
[1] = target: T1, apolipoprotein alpha-1 (Apo A-1) (Homo sapiens, UniProt P02647); experiment: Purification from Effluent II+III, Apo A-1 mass balance; type: binding; settings: 1 ml Eff. II+III, 4° C.
T1 construct: Eff; II+III is a process intermediate in the Cohn plasma fractionation process; tissue Bayer Corporation (Clayton, N.C.); host or cells: plasma fraction: Cohn Effluent II+III
T1 sequence (P02647 19-267): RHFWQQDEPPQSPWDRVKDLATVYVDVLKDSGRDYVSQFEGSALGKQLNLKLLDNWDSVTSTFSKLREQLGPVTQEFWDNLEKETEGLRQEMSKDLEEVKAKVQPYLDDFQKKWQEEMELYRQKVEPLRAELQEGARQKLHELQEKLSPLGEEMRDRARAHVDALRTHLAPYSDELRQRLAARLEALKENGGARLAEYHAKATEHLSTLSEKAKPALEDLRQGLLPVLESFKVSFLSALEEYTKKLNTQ
Summary of the method: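 Peptide-ligand columns were loaded with 1 ml Cohn Effluent II+III (20% v/v ethanol, 20-25 mg/ml hSA, ~1 mg/ml A1PI, other plasma proteins at 0.1-1 mg/ml) using a 10 min residence time at 4° C. Step elutions at 865 μl/min used 1M NaCl, 3M NaCl, then 2% acetic acid, and protein mass balances were tracked across fractions.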

A1PI [2] = target: T2, A1PI (Homo sapiens, UniProt P01009); experiment: A1PI yield from dialyzed (aqueous) Effluent II+III; type: binding; settings: 4° C.
T2 construct: Human plasma is currently the only approved source of therapeutic AlPI
T2 sequence (P01009 25-418): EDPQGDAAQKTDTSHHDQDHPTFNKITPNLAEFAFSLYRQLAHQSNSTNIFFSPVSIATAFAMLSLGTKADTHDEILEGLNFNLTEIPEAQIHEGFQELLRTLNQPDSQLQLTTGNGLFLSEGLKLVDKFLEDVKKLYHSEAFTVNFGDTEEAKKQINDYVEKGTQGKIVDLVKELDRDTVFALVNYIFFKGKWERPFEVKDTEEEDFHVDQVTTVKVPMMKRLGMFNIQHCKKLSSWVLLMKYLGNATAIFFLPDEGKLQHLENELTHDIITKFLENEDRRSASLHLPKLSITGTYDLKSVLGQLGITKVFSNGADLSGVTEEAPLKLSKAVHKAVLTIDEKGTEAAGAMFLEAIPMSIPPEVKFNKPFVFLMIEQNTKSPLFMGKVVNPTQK
Summary of the method: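 Effluent II+III was dialyzed at 4° C against equilibration buffer (15,000 MWCO) to remove ethanol. It was then applied under the same binding conditions as neat feed, and A1PI was tracked by nephelometry in the 1M NaCl and acid eluates.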

Immunoglobulin G (IgG) = experiment: Purification from Effluent II+III, IgG mass balance; type: binding, human; settings: 1 ml Eff. II+III, 4° C.
Summary of the method: (§1)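 Feed: 1 ml Eff. II+III (20% EtOH, 20-25 mg/ml hSA, ~1 mg/ml A1PI). 10 min residence, then 865 μl/min; steps 1M NaCl / 3M NaCl / 2% acetic acid; 4° C. Mass balance per fraction.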

A1PI [3] = target: T2, A1PI; experiment: A1PI purification from 5 mg hSA + 1 mg A1PI on peptide column, A1PI mass balance; type: binding; settings: for Mass AlPI Eluted in Acid Eluate: nephelometry; for Mass Protein per Eluate Fraction, 1M NaCl / Mass Protein per Eluate Fraction, 2% Ac. Acid / Mass Protein per Eluate Fraction, 3M NaCl / Mass Protein per Eluate Fraction, Flow / Percent Eluted by Fraction, 1M NaCl / Percent Eluted by Fraction, 2% Ac. Acid / Percent Eluted by Fraction, 3M NaCl / Percent Eluted by Fraction, Flow / Mass Protein per Eluate Fraction, 2% Acetic Acid / Percent Eluted by Fraction, 2% Acetic Acid: A1PI, 5 mg hSA + 1 mg A1PI; for Mass Protein per Eluate Fraction, 1M NaCl / Mass Protein per Eluate Fraction, 2% Ac. Acid / Mass Protein per Eluate Fraction, 3M NaCl / Mass Protein per Eluate Fraction, Flow / Mass Protein per Eluate Fraction, 2% Acetic Acid: * Below detection limit
Summary of the method: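 Peptides on A-Totda-Toyopearl resin (0.1 mmole/g) in 0.4×5 cm columns; 5 mg hSA + 1 mg A1PI loaded at 4 °C or 20 °C with 10 min residence (17 μl/min). Steps of 1M and 3M NaCl, then 2% acetic acid; fractions quantified by immunonephelometry for mass balance.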

Immunoglobulin A (IgA) = experiment: Purification from Effluent II+III, IgA mass balance; type: binding, human; settings: 1 ml Eff. II+III, 4° C.
Summary of the method: as §1

[4] = * as in Tables 4, 5 (below detection limit)
[5] = 1 ml dialyzed Eff. II+III (ethanol removed)
[6] = A1PI, 1 ml dialyzed Eff. II+III
[7] = 4° C., relative to total eluted
[8] = 20° C., relative to total eluted
[9] = Table 10, 4° C., relative to total loaded
[10] = Table 10, 20° C., relative to total loaded

VIWLVR
Percent Eluted by Fraction, 1M NaCl [1]: 0%
Percent Eluted by Fraction, 2% Acetic Acid [1]: 48%
Percent Eluted by Fraction, 3M NaCl [1]: 0%
Percent Eluted by Fraction, Flow [1]: 52%
Mass Protein per Eluate Fraction, 2% Acetic Acid [1, 4]: 0.29 mg
Mass Protein per Eluate Fraction, Flow [1, 4]: 0.32 mg
Mass A1PI per Eluate Fraction, 1M NaCl (A1PI [2]; [5]): 0.15 mg
Mass A1PI per Eluate Fraction, 2% Acetic Acid (A1PI [2]; [5]): 0.23 mg
Mass A1PI per Eluate Fraction, Flowthrough (A1PI [2]; [5]): 0.24 mg
Percent Eluted by Fraction, 1M NaCl (A1PI [2]; [6]): 24%
Percent Eluted by Fraction, 2% Acetic Acid (A1PI [2]; [6]): 37%
Percent Eluted by Fraction, Flowthrough (A1PI [2]; [6]): 39%
Percent Eluted by Fraction, 1M NaCl (Immunoglobulin G (IgG)): 6%
Percent Eluted by Fraction, 2% Acetic Acid (Immunoglobulin G (IgG)): 0%
Percent Eluted by Fraction, 3M NaCl (Immunoglobulin G (IgG)): 0%
Percent Eluted by Fraction, Flow (Immunoglobulin G (IgG)): 94%
Mass Protein per Eluate Fraction, 1M NaCl (Immunoglobulin G (IgG); [4]): 0.02 mg
Mass Protein per Eluate Fraction, Flow (Immunoglobulin G (IgG); [4]): 0.36 mg
Mass AlPI Eluted in Acid Eluate (A1PI [3]; 250 μg AlPI injected with 5 mg hSA, 20° C.): 0.18 mg
Mass AlPI Eluted in Acid Eluate (A1PI [3]; 500 μg AlPI injected with 5 mg hSA, 20° C.): 0.48 mg
Mass AlPI Eluted in Acid Eluate (A1PI [3]; 1000 μg AlPI injected with 5 mg hSA, 20° C.): 0.70 mg
Mass Protein per Eluate Fraction, 1M NaCl (A1PI [3]; 4° C.): 0.20 mg
Mass Protein per Eluate Fraction, 2% Ac. Acid (A1PI [3]; 4° C.): 0.27 mg
Mass Protein per Eluate Fraction, 3M NaCl (A1PI [3]; 4° C.): 0.01 mg
Mass Protein per Eluate Fraction, Flow (A1PI [3]; 4° C.): 0.29 mg
Percent Eluted by Fraction, 1M NaCl (A1PI [3]; [7]): 26%
Percent Eluted by Fraction, 2% Ac. Acid (A1PI [3]; [7]): 35%
Percent Eluted by Fraction, 3M NaCl (A1PI [3]; [7]): 1%
Percent Eluted by Fraction, Flow (A1PI [3]; [7]): 38%
Mass Protein per Eluate Fraction, 1M NaCl (A1PI [3]; 20° C.): 0.08 mg
Mass Protein per Eluate Fraction, 2% Ac. Acid (A1PI [3]; 20° C.): 0.65 mg
Mass Protein per Eluate Fraction, 3M NaCl (A1PI [3]; 20° C.): 0.02 mg
Mass Protein per Eluate Fraction, Flow (A1PI [3]; 20° C.): 0.08 mg
Percent Eluted by Fraction, 1M NaCl (A1PI [3]; [8]): 9%
Percent Eluted by Fraction, 2% Ac. Acid (A1PI [3]; [8]): 80%
Percent Eluted by Fraction, 3M NaCl (A1PI [3]; [8]): 2%
Percent Eluted by Fraction, Flow (A1PI [3]; [8]): 9%
Mass Protein per Eluate Fraction, 1M NaCl (A1PI [3]; Table 10, 4° C.): 0.21 mg
Mass Protein per Eluate Fraction, 2% Acetic Acid (A1PI [3]; Table 10, 4° C.): 0.31 mg
Mass Protein per Eluate Fraction, 3M NaCl (A1PI [3]; Table 10, 4° C.): 0.03 mg
Mass Protein per Eluate Fraction, Flow (A1PI [3]; Table 10, 4° C.): 0.28 mg
Percent Eluted by Fraction, 1M NaCl (A1PI [3]; [9]): 26%
Percent Eluted by Fraction, 2% Acetic Acid (A1PI [3]; [9]): 38%
Percent Eluted by Fraction, 3M NaCl (A1PI [3]; [9]): 4%
Percent Eluted by Fraction, Flow (A1PI [3]; [9]): 35%
Mass Protein per Eluate Fraction, 1M NaCl (A1PI [3]; Table 10, 20° C.): 0.08 mg
Mass Protein per Eluate Fraction, 2% Acetic Acid (A1PI [3]; Table 10, 20° C.): 0.65 mg
Mass Protein per Eluate Fraction, 3M NaCl (A1PI [3]; Table 10, 20° C.): 0.02 mg
Mass Protein per Eluate Fraction, Flow (A1PI [3]; Table 10, 20° C.): 0.08 mg
Percent Eluted by Fraction, 1M NaCl (A1PI [3]; [10]): 9%
Percent Eluted by Fraction, 2% Acetic Acid (A1PI [3]; [10]): 80%
Percent Eluted by Fraction, 3M NaCl (A1PI [3]; [10]): 2%
Percent Eluted by Fraction, Flow (A1PI [3]; [10]): 9%
Percent Eluted by Fraction, 1M NaCl (Immunoglobulin A (IgA)): 24%
Percent Eluted by Fraction, 2% Acetic Acid (Immunoglobulin A (IgA)): 39%
Percent Eluted by Fraction, 3M NaCl (Immunoglobulin A (IgA)): 0%
Percent Eluted by Fraction, Flow (Immunoglobulin A (IgA)): 37%
Mass Protein per Eluate Fraction, 1M NaCl (Immunoglobulin A (IgA); [4]): 0.11 mg
Mass Protein per Eluate Fraction, 2% Acetic Acid (Immunoglobulin A (IgA); [4]): 0.18 mg
Mass Protein per Eluate Fraction, Flow (Immunoglobulin A (IgA); [4]): 0.17 mg
